These results are taken from patent US20250206797A1.

B1: fusion protein 5 (insulin analog 1 + L2 + IgG2 Fc1) (Fc fusion)
chain: FVNQHLCGEHLVEALYLVCGERGFHYGGGGGGSGGGGGIVEQCCESICSLEQLENYCGGGGGQGGGGQGGGGQGGGGQGGGGQECPPCPAPPVAGPSVFLFPPKPKDTLMISRTPEVTCVVVDVSHEDPEVQFNWYVDGVEVHNAKTKPREEQFNSTFRVVSVLTVVHQDWLNGKEYKCKVSNKGLPAPIEKTISKTKGQPREPQVYTLPPSREEMTKNQVSLTCLVKGFYPSDIAVEWESNGQPENNYKTTPPMLDSDGSFFLYSKLTVDKSRWQQGNVFSCSVMHEALHNHYTQKSLSLSPG
B2: fusion protein 7 (insulin analog 1 + L2 + IgG2 Fc1) (Fc fusion)
chain: FVNQHLCGEHLVEALYLVCGERGFHYGGGGGGSGGGGGIVEQCCESICSLEQLENYCGPGPQPGPQPGPQPGPQPGPQPGPQPGPQPGPQECPPCPAPPVAGPSVFLFPPKPKDTLMISRTPEVTCVVVDVSHEDPEVQFNWYVDGVEVHNAKTKPREEQFNSTFRVVSVLTVVHQDWLNGKEYKCKVSNKGLPAPIEKTISKTKGQPREPQVYTLPPSREEMTKNQVSLTCLVKGFYPSDIAVEWESNGQPENNYKTTPPMLDSDGSFFLYSKLTVDKSRWQQGNVFSCSVMHEALHNHYTQKSLSLSPG
B3: fusion protein 6 (insulin analog 5 + L2 + IgG2 Fc1) (Fc fusion)
chain: FVNQHLCGEHLVEALYLVCGERGFHYGGGGGSGGGGGIVEQCCESICSLEQLENYCGGGGGQGGGGQGGGGQGGGGGECPPCPAPPVAGPSVFLFPPKPKDTLMISRTPEVTCVVVDVSHEDPEVQFNWYVDGVEVHNAKTKPREEQFNSTFRVVSVLTVVHQDWLNGKEYKCKVSNKGLPAPIEKTISKTKGQPREPQVYTLPPSREEMTKNQVSLTCLVKGFYPSDIAVEWESNGQPENNYKTTPPMLDSDGSFFLYSKLTVDKSRWQQGNVFSCSVMHEALHNHYTQKSLSLSPG
B4: fusion protein 8 (insulin analog 1 + L2 + IgG2 Fc1) (Fc fusion)
chain: FVNQHLCGEHLVEALYLVCGERGFHYGGGGGGSGGGGGIVEQCCESICSLEQLENYCGGGGGAGGGGAGGGGAGGGGGECPPCPAPPVAGPSVFLFPPKPKDTLMISRTPEVTCVVVDVSHEDPEVQFNWYVDGVEVHNAKTKPREEQFNSTFRVVSVLTVVHQDWLNGKEYKCKVSNKGLPAPIEKTISKTKGQPREPQVYTLPPSREEMTKNQVSLTCLVKGFYPSDIAVEWESNGQPENNYKTTPPMLDSDGSFFLYSKLTVDKSRWQQGNVFSCSVMHEALHNHYTQKSLSLSPG
B5: fusion protein 4 (insulin analog 4 + L2 + IgG2 Fc1) (Fc fusion)
chain: FVKQHLCGEHLVEALYLVCGERGFHYGGGGGGSGGGGGIVEQCCESICSLEQLENYCGGGGGQGGGGQGGGGQGGGGGECPPCPAPPVAGPSVFLFPPKPKDTLMISRTPEVTCVVVDVSHEDPEVQFNWYVDGVEVHNAKTKPREEQFNSTFRVVSVLTVVHQDWLNGKEYKCKVSNKGLPAPIEKTISKTKGQPREPQVYTLPPSREEMTKNQVSLTCLVKGFYPSDIAVEWESNGQPENNYKTTPPMLDSDGSFFLYSKLTVDKSRWQQGNVFSCSVMHEALHNHYTQKSLSLSPG
B6: LY3209590 (Fc fusion)
chain: FVNQHLCGSHLVEALELVCGERGFHYGGGGGGSGGGGGIVEQCCTSTCSLDQLENYCGGGGGQGGGGQGGGGQGGGGGECPPCPAPPVAGPSVFLFPPKPKDTLMISRTPEVTCVVVDVSHEDPEVQFNWYVDGVEVHNAKTKPREEQFNSTFRVVSVLTVVHQDWLNGKEYKCKVSNKGLPAPIEKTISKTKGQPREPQVYTLPPSREEMTKNQVSLTCLVKGFYPSDIAVEWESNGQPENNYKTTPPMLDSDGSFFLYSKLTVDKSRWQQGNVFSCSVMHEALHNHYTQKSLSLSPG
B7: fusion protein 2 (insulin analog 2 + L2 + IgG2 Fc1) (Fc fusion)
chain: FVNQHLCGSHLVEALYLVCGERGFHYGGGGGGSGGGGGIVEQCCHSICSLEQLENYCGGGGGQGGGGQGGGGQGGGGGECPPCPAPPVAGPSVFLFPPKPKDTLMISRTPEVTCVVVDVSHEDPEVQFNWYVDGVEVHNAKTKPREEQFNSTFRVVSVLTVVHQDWLNGKEYKCKVSNKGLPAPIEKTISKTKGQPREPQVYTLPPSREEMTKNQVSLTCLVKGFYPSDIAVEWESNGQPENNYKTTPPMLDSDGSFFLYSKLTVDKSRWQQGNVFSCSVMHEALHNHYTQKSLSLSPG
B8: fusion protein 3 (insulin analog 3 + L2 + IgG2 Fc1) (Fc fusion)
chain: FVNQHLCGSHLVEALHLVCGERGFHYGGGGGGSGGGGGIVEQCCTSICSLEQLENYCNGGGGQGGGGQGGGGQGGGGGECPPCPAPPVAGPSVFLFPPKPKDTLMISRTPEVTCVVVDVSHEDPEVQFNWYVDGVEVHNAKTKPREEQFNSTFRVVSVLTVVHQDWLNGKEYKCKVSNKGLPAPIEKTISKTKGQPREPQVYTLPPSREEMTKNQVSLTCLVKGFYPSDIAVEWESNGQPENNYKTTPPMLDSDGSFFLYSKLTVDKSRWQQGNVFSCSVMHEALHNHYTQKSLSLSPG
B9: fusion protein 1 (insulin analog 1 + L2 + IgG2 Fc1) (Fc fusion)
chain: FVNQHLCGEHLVEALYLVCGERGFHYGGGGGGSGGGGGIVEQCCESICSLEQLENYCGGGGGQGGGGQGGGGQGGGGGECPPCPAPPVAGPSVFLFPPKPKDTLMISRTPEVTCVVVDVSHEDPEVQFNWYVDGVEVHNAKTKPREEQFNSTFRVVSVLTVVHQDWLNGKEYKCKVSNKGLPAPIEKTISKTKGQPREPQVYTLPPSREEMTKNQVSLTCLVKGFYPSDIAVEWESNGQPENNYKTTPPMLDSDGSFFLYSKLTVDKSRWQQGNVFSCSVMHEALHNHYTQKSLSLSPG
B10: fusion protein 9 (insulin analog 6 + L2 + IgG2 Fc1) (Fc fusion)
chain: FVNQHLCGEHLVEALYLVCGERGFHYGGGGGGSGGGGGIVEQCCESICSLEQLENYCNHGGGQGGGGQGGGGQGGGGGECPPCPAPPVAGPSVFLFPPKPKDTLMISRTPEVTCVVVDVSHEDPEVQFNWYVDGVEVHNAKTKPREEQFNSTFRVVSVLTVVHQDWLNGKEYKCKVSNKGLPAPIEKTISKTKGQPREPQVYTLPPSREEMTKNQVSLTCLVKGFYPSDIAVEWESNGQPENNYKTTPPMLDSDGSFFLYSKLTVDKSRWQQGNVFSCSVMHEALHNHYTQKSLSLSPG

The assay deals with Type B human insulin receptor (hIR-B) (human), P06213. In words: cell-based or functional assay.
The molecule B1 yielded an Activity of human insulin receptor subtype B (EC50), autophosphorylation in CHO-K1-hIRB cells (HTRF phospho-Y1150/1151) of 182 nM.
Take B2: the Activity of human insulin receptor subtype B (EC50), autophosphorylation in CHO-K1-hIRB cells (HTRF phospho-Y1150/1151) is 275 nM.
Molecule B3 displayed an Activity of human insulin receptor subtype B (EC50), autophosphorylation in CHO-K1-hIRB cells (HTRF phospho-Y1150/1151) of 328 nM.
B4 displayed an Activity of human insulin receptor subtype B (EC50), autophosphorylation in CHO-K1-hIRB cells (HTRF phospho-Y1150/1151) of 326 nM.
Then B5, with 288 nM.
B6 displayed an Activity of human insulin receptor subtype B (EC50), autophosphorylation in CHO-K1-hIRB cells (HTRF phospho-Y1150/1151) of 116 nM.
In turn, B7 gave an Activity of human insulin receptor subtype B (EC50), autophosphorylation in CHO-K1-hIRB cells (HTRF phospho-Y1150/1151) of 2.68 nM.
As to B8, the Activity of human insulin receptor subtype B (EC50), autophosphorylation in CHO-K1-hIRB cells (HTRF phospho-Y1150/1151) is 4.57 nM.
B9 showed an Activity of human insulin receptor subtype B (EC50), autophosphorylation in CHO-K1-hIRB cells (HTRF phospho-Y1150/1151) of 422 nM.
Consider B10, for which the Activity of human insulin receptor subtype B (EC50), autophosphorylation in CHO-K1-hIRB cells (HTRF phospho-Y1150/1151) is 120 nM.
